Two molecules from article doi:10.1101/2024.03.21.586141, “Delving into human α1,4-galactosyltransferase acceptor specificity: the role of enzyme dimerization” (bioRxiv, 2024) can be followed below.

Changes are numbered by the printed parent chain. In names and notes the source's numbering stands.

Common to all, as to conditions: partners not purified
Assay [1] deals with T1, human β1,4-galactosyltransferase 1 (B4galt1) (human, UniProt P15291-2 1-385).
T1 construct: human β1,4-galactosyltransferase 1, ORF of GenBank NM_001378495.1 nucleotides 30-1187 (1158 nt: 385 codons and stop); Synthetic ORF (Thermo Fisher) recloned into pBiT1.1-N/C and pBiT2.1-N/C; also called N-Lg-B4galt1; C-Lg-B4galt1; source: HEK293T or CHO-Lec2 cells, transfected (PEI), in live cells; not shown: LgBiT or SmBiT (NanoLuc subunit), N-terminal or C-terminal, kept
T1 sequence (looked up): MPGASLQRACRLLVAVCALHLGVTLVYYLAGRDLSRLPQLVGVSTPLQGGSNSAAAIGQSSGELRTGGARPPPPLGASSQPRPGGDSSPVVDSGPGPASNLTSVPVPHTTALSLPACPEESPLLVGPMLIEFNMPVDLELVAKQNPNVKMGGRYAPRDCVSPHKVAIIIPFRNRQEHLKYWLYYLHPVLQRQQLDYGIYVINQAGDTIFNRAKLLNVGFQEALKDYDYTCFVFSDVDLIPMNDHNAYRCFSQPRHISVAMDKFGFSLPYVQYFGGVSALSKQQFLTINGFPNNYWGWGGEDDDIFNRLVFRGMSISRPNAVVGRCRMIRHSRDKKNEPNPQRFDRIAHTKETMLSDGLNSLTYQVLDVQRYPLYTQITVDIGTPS
As to the kind of experiment: split reporter (BiFC, NanoBiT); NanoBiT in live HEK293T cells, co-transfected with LgBiT and SmBiT fusions (N- or C-terminal, 25 ng of each plasmid a well), Nano-Glo Live Cell Substrate in Opti-MEM; fold of luminescence over LgBiT fusion with HaloTag-SmBiT, threshold 10-fold.

Assay [2] addresses T2, human β1,4-galactosyltransferase 5 isoenzyme (B4galt5) (human, UniProt O43286 1-388).
T2 construct: human β1,4-galactosyltransferase 5, ORF of GenBank NM_004776.4 nucleotides 189-1355 (388 codons and stop); Synthetic ORF (Thermo Fisher) recloned into pBiT1.1-N/C and pBiT2.1-N/C; also called N-Lg-B4galt5; C-Lg-B4galt5; source: HEK293T or CHO-Lec2 cells, transfected (PEI), in live cells; not shown: LgBiT or SmBiT (NanoLuc subunit), N-terminal or C-terminal, kept
T2 sequence (looked up): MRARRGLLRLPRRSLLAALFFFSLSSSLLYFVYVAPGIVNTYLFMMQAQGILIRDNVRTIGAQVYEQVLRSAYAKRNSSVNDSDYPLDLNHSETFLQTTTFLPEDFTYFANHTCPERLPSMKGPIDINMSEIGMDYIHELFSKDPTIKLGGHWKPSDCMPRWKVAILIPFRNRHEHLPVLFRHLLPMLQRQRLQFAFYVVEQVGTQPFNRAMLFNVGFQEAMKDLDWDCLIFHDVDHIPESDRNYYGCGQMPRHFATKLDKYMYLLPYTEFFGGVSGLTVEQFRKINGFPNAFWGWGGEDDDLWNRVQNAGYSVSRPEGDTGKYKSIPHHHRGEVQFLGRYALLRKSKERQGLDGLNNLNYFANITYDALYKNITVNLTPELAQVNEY
Nature of the assay: split reporter (BiFC, NanoBiT); NanoBiT in live CHO-Lec2 cells, co-transfected with LgBiT and SmBiT fusions (N- or C-terminal, 25 ng of each plasmid a well), Nano-Glo Live Cell Substrate in Opti-MEM; fold of luminescence over LgBiT fusion with HaloTag-SmBiT, threshold 10-fold.

Assay [3] addresses T1, human β1,4-galactosyltransferase 1 …. Described as above.

B1: human α1,4-galactosyltransferase (A4galt), high-frequency enzyme (p.Q211) (enzyme, UniProt Q9NPC4 1-353, looked up)
chain: MSKPPDLLLRLLRGAPRQRVCTLFIIGFKFTFFVSIMIYWHVVGEPKEKGQLYNLPAEIPCPTLTPPTPPSHGPTPGNIFFLETSDRTNPNFLFMCSVESAARTHPESHVLVLMKGLPGGNASLPRHLGISLLSCFPNVQMLPLDLRELFRDTPLADWYAAVQGRWEPYLLPVLSDASRIALMWKFGGIYLDTDFIVLKNLRNLTNVLGTQSRYVLNGAFLAFERRHEFMALCMRDFVDHYNGWIWGHQGPQLLTRVFKKWCSIRSLAESRACRGVTTLPPEAFYPIPWQDWKKYFEDINPEELPRLLSATYAVHVWNKKSQGTRFEATSRALLAQLHARYCPTTHEAMKMYL
notes: human α1,4-galactosyltransferase, high-frequency variant with Q at position 211; full-length A4GALT gene from pCAG-A4GALT, GenBank NM_001318038.3 nucleotides 325-1386 (353 codons and stop); Four fusions were made (LgBiT or SmBiT at the N- or C-terminus, vectors pBiT1.1-N/C and pBiT2.1-N/C); every protein stood as LgBiT and as SmBiT fusion; also called Gb3/CD77 synthase; P1/Pk synthase; source: …
Take B1: the “fold of luminescence over the negative control” value in assay [1] is ~60 times; in assay [2], 300 times; in assay [3], 90 times.

B2: human α1,4-galactosyltransferase (A4galt), mutein with p.Q211E substitution (enzyme, UniProt Q9NPC4 1-353, looked up)
chain: B1 chain with Q211E
notes: human α1,4-galactosyltransferase, rare natural variant p.Q211E (c.631C>G, rs397514502); full-length A4GALT gene from pCAG-A4GALT, GenBank NM_001318038.3 nucleotides 325-1386; Four fusions were made (LgBiT or SmBiT at the N- or C-terminus); also called mutein human A4galt; rare enzyme variant; source: HEK293T or CHO-Lec2 cells, transfected (PEI), in live cells; not shown: LgBiT or SmBiT (NanoLuc …)
In the case of B2, the “fold of luminescence over the negative control” value in assay [1] is ~30 times; in assay [2], ~1000 times; in assay [3], 360 times.
